Where a chain is given by its changes, count along the chain named. Read-outs that look alike come from different tables or passages of the source.
How the values were obtained:
Test in all cases: pull-down
His6-Vps45p [1] = biological target: T1, His6-Vps45p (S. cerevisiae, UniProt P38932 1-577)
T1 sequence (looked up): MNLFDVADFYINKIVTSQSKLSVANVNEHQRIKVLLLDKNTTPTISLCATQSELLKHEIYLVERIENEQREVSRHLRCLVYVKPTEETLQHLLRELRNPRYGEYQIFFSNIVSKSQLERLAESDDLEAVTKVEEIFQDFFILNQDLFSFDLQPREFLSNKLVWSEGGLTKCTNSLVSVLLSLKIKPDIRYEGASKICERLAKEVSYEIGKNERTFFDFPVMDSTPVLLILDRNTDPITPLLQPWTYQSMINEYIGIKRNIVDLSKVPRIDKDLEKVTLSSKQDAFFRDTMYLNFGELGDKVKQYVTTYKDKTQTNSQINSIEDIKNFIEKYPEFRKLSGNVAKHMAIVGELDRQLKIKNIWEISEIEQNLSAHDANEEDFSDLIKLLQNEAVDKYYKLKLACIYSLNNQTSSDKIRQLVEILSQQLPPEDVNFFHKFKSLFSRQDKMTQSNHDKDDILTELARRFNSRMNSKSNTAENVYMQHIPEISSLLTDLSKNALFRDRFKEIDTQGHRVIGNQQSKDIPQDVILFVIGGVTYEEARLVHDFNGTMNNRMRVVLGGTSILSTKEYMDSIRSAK

His6-Vps45p_(L117R) = biological target: T2, His6-Vps45p_(L117R) (S. cerevisiae, UniProt P38932 1-577, L117R)
T2 sequence (looked up): T1 sequence (looked up) with L117R

His6-Vps45p [2] = biological target: T1, His6-Vps45p; remark: listed apart in the source

B1: Snc2p_(Δ2–19)-PrA (domain or fragment, S. cerevisiae, UniProt P33328 1-88, looked up)
chain: MANPNSQNKTAALRQEIDDTVGIMRDNINKVAERGERLTSIEDKADNLAISAQGFKRGANRVRKQMWWKD
His6-Vps45p [1]
  binding result: binds

B2: Snc2p-PrA (cytosolic domain of Snc2p fused to protein A) (domain or fragment, S. cerevisiae, UniProt P33328 1-88, looked up)
chain: MSSSVPYDPYVPPEESNSGANPNSQNKTAALRQEIDDTVGIMRDNINKVAERGERLTSIEDKADNLAISAQGFKRGANRVRKQMWWKD
His6-Vps45p_(L117R)
  binding result: binds

B3: Snc2p_(cyto) (cytosolic domain of Snc2p, PrA tag removed by thrombin) (domain or fragment, S. cerevisiae, UniProt P33328 1-88, looked up)
chain: B2 chain
His6-Vps45p [2]
  binding result: binds

Reference: PMC3215948 (The Journal of Cell Biology, 2006)
